Substitutions are numbered along the chain they refer to.
T1: human interleukin-2 receptor β-chain (IL-2Rβ; CD122), recombinant protein (human, UniProt P14784 27-240)
T1 construct: also called human IL-2R subunit CD122
T1 sequence: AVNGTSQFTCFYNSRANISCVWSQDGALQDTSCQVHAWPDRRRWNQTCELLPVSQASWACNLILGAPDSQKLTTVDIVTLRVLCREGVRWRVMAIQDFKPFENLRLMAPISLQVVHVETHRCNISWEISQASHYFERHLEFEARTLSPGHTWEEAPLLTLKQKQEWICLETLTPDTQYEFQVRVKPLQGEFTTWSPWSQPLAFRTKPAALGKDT

T2: cynomolgus monkey IL-2Rβ/CD122 subunit (cynomolgus monkey, UniProt Q38J85 27-239, limits assumed)
T2 construct: also called Cyno IL-2R subunit
T2 sequence (looked up): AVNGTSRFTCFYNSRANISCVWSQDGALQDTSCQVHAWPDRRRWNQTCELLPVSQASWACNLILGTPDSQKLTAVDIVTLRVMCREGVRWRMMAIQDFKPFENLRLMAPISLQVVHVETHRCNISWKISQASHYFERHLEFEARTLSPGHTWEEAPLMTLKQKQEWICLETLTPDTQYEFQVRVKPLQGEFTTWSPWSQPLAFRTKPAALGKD

T3: human interleukin-2 receptor α-chain (IL-2Rα; CD25), recombinant protein (human, UniProt P01589 22-240, limits assumed)
T3 construct: also called huIL2R-a; hIL-2RA
T3 sequence: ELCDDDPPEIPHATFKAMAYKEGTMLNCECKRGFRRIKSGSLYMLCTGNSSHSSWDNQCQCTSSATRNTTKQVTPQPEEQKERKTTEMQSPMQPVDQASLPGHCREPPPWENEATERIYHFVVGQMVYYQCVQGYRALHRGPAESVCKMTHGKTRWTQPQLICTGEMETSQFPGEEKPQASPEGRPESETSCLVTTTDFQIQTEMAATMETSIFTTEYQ

T4: cynomolgus monkey IL-2Rα/CD25 subunit (cynomolgus monkey, UniProt H6WS54 22-213)
T4 construct: also called Cyno IL-2R subunit
T4 sequence: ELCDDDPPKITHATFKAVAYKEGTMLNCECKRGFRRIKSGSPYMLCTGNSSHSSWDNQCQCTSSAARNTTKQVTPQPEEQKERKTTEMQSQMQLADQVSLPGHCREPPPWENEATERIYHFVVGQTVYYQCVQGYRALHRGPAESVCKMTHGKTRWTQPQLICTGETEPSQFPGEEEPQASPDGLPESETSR

B1: 15-MP02E06 VHH-hFc, monospecific bivalent (Fc fusion)
chain: QVQLVESGGGSVQPGGSLRLSCAASGFTFSNYAMSWVRQAPGKGLEWVASITGFGRGTDYADSVKGRFTISRDNAEDTLYLQMNSLKPEDTAVYYCAKYSSSTYYPPTPARGRDYRGQGTQVTVSS
notes: IgG1 Fc LALA-PG; also called anti-IL-2Rβ Ab 15; not shown: human IgG1 CH2 and CH3 domains (Fc)
B2: 23-MP06F03 VHH-hFc, monospecific bivalent (Fc fusion)
chain: QVQLVESGGGLVQAGGSLRLSCAVSGDVFVRYTMAWFRQAPGKEREFVASVTDSGRTTDYVHSVKGRFTVSRDNAKNTVYLQMNNLKPEDTAVYYCAANTDYFQIKSLDANTWGQGTQVTVSS
notes: IgG1 Fc LALA-PG; not shown: human IgG1 CH2 and CH3 domains (Fc)
B3: 26-MP06A07 VHH-hFc, monospecific bivalent (Fc fusion)
chain: B2 chain with V5Q, V24A, D59E, H62D, V79A, V93I, K106R, A110L
notes: as for B2
B4: 189-MP02B12 VHH-hFc, monospecific bivalent (Fc fusion)
chain: QVQLVESGGGLVQAGGSLRLSCAASGRADSNAIMAWFRQAPGKEREFIVAVTYSGMPTYQDDSVQGRFTASRDNAKNTVYLQMNSLKPEDTAVYYCAARMYSASTYYGDYDYWGQGTQVTVSS
notes: as for B2
B5: 18-MP03C03 VHH-hFc, monospecific bivalent (Fc fusion)
chain: QVQLVESGGGLVQPGGSLRLSCAISGGTLDSYGIGWVRQAPGKQREGVSCMSRSDDRTYYADSVKGRFTISKDSAKNTVYLQMTSLKPEDTAVYYCAAVDAYGCSLVQPTTYDFWGLGTQVTVSS
notes: as for B2
B6: 17-MP02C09 VHH-hFc, monospecific bivalent (Fc fusion)
chain: QVQLQESGGGLVQAGGSLRLSCVASGSVSSINGMAWYRQGADNQRVLVAAISRVGNTAYGDSVKGRFTISRQNARNTVYLQMNSLKPEDTAVYYCNADSWGGDDYWGQGTQVTVSS
notes: IgG1 Fc LALA-PG; also called anti-IL-2Rβ Ab 17; not shown: human IgG1 CH2 and CH3 domains (Fc)
B7: 1-MP01H01 VHH-hFc, monospecific bivalent (Fc fusion)
chain: EVQLVESGGGLVQAGGSLRLSCAASGRTFRTHNMGWFRRAPGKEREFVAAISWNVDNTLYADSVKGRFTISRDNGRNMVYLQMNSLKPEDTAVYYCAADNIPLSSDVAATATEYDYWGQGTQVTVSS
notes: as for B2
B8: 193-MP02F12 VHH-hFc, monospecific bivalent (Fc fusion)
chain: QLQLVESGGGLVQTGTSLRLSCAASGHTSRINAMGWFRQFPGKEREFVAAISRNGGSTVYVDSVKGRFTISRDNAKSTVYLQMNSLKPEDTAVYYCTATDAVGWTTRWMTADFGFWGQGTQVTVSS
notes: as for B2
B9: 22-MP03F12 VHH-hFc, monospecific bivalent (Fc fusion)
chain: EVQLVESGGGLVQAGGSLRLSCAASGSIFSINAMAWFRQVPGMERELVAAISRDGGASVYRDSVKGRFTISRDNSKNTVYLQMNTLKPEDTAIYVCAATRAIGWTARWITTDFDFWGQGTQVTVSS
notes: as for B2
B10: 92-MP05C07 VHH-hFc, monospecific bivalent (Fc fusion)
chain: QVQLVESGGGSVQAGGSLRLSCEASGRTLFSSYGMGWFRQAPGKEREFVGAISRFGTYTSYADPVKDRFTISRDNAKSTVYLQMNNTKPEDTAVYYCAAYTYSGSFYSTVKTHHDEYRYWGQGTQVTVSS
notes: as for B2
B11: 16-MP02B08 VHH-hFc, monospecific bivalent (Fc fusion)
chain: EVQLVESGGGLVQAGGSLRLSCAASGRAIENYPVGWFRQAPGKEREFVAAITWISGSTLYADSVKGRFTISRDNAKNTVYLQMSSLKPEDTALYYCAAALKTITRGQNDYSYWGQGTQVTVSS
notes: as for B2
B12: 24-MP06E05 VHH-hFc, monospecific bivalent (Fc fusion)
chain: QVQLVESGGELVQGGASLRLSCAASGRTFSNANMAWFRQAPEKEREFVALITWSSGSTLYADSVKGRFTISRDNARKMVYLQMNSLKPEDTAVYYCAADGPPYSGTYYRYDTYDYWGQGTQVTVSS
notes: as for B2
B13: 168-MP02B09 VHH-hFc, monospecific bivalent (Fc fusion)
chain: EVQLVESGGGLVQAGGSLRLSCAASGRTFSTTEMGWFRQAPGKEREFVAAITWTGRGTMYAESVEGRFTISRENAKNMVYLQMNSLKPEDTAIYYCAAARRGRAAVRSEGGYDFWGQGTQVTVSS
notes: as for B2
B14: 126-MP02A03 VHH-hFc, monospecific bivalent (Fc fusion)
chain: QVQLVESGGGLVQPGGSLRLSCAASGFTFSNYAMSWVRQAPGKGLEWVSSITGAGRGTYYAESVKGRFTISRDNDKNTLYLQMNSLKPEDTAVYYCAKYDSSTFYPPTPARGIADRGQGTRVTVSS
notes: as for B2
B15: 184-MP02E11 VHH-hFc, monospecific bivalent (Fc fusion)
chain: QVQLQESGGGLVQAGGSLRLSCAASGRTFSNYVMAWFRQAPGKEREFVGAITQTGRGTFYADSVEGRFTISRINDKNTVYLQMNSLKPEDTAVYYCSAPRSGRAGTRNQMDYEYWGQGTQVTVSS
notes: as for B2
B16: 297-MP06A08 VHH-hFc, monospecific bivalent (Fc fusion)
chain: EVQLVESGGGLVQAGESLRLSCAASGQYFSTYSMAWFRRTPGKEREFVTIISESGGIKEYVDSVKGRFTVSRDNAKNTVYLQMNSLKPEDTAVYYCAAARDWFARNEYQYDYWGQGTQVTVSS
notes: as for B2
B17: 20-MP03F10 VHH-hFc, monospecific bivalent (Fc fusion)
chain: EVQLVESGGGLVQAGGSLRLSCAASGRDFSSYAMGWFRQAPGKEREFVVAITWTKRSTDFPDSVKGRFTISRDNAKNTVYLDMNSLKPEDTAVYYCASARGLPVTPLGDIIYWGEGTLVTVSS
notes: as for B2
B18: 19-MP03F08 VHH-hFc, monospecific bivalent (Fc fusion)
chain: EVQLVESGGGLVQTGGSLRLSCAASGGTFSRDAMAWFRQVPGKEREFVALISWSGATTNYADSVKGRFAISRDNGKNTVYLQMNRLKPADTAIYYCAADRRPMGSRSYFEPTEYDDWGQGTQVTVSS
notes: as for B2
B19: 166-MP02H08 VHH-hFc, monospecific bivalent (Fc fusion)
chain: EVQLVESGGGLVQAGDSLRISCAASGRIFSNYAMGWFRQAPGKETEFVAGITHLTSTTHYADSVKGRFTISRDNAKNTMHLQMNNLKPEDTALYYCAADRNIKITADWSYWGQGTQVTVAS
notes: as for B2
B20: 161-MP02C08 VHH-hFc, monospecific bivalent (Fc fusion)
chain: EVQLVESGGGLVQAGGSLRLSCAASGSTFSRQPMYWFRQAPGKEREFVAAITWSGRGTLYADSVEGRFTISRDNAKNTVYLQMNSLRPDDTAAYYCAAGPYGDAAYRHGRIDSWGQGTQVTVSS
notes: as for B2
B21: 115-MP02E01 VHH-hFc, monospecific bivalent (Fc fusion)
chain: EVQLVESGGGLVQIGGSLRLSCAASGRTFSSITMAYFRQVPGKEREWVAGINFSGTRTFYADSVKGRFLISRDDAKSTMYLQMNSLKPEDTAVYYCAASPRGFYGPGNALYDYWGQGTQVTVSS
notes: as for B2

Experiments:
[1] = target: T1, human interleukin-2 receptor β-chain …; assay: ELISA, bivalent VHH-hFc
Experimental: (§1) Monospecific monovalent and bivalent IL-2Rα-, IL-2Rβ- and IL-2Rγ-specific antibodies that were selected on human IL-2R subunits, were evaluated for their cross-reactivity in an ELISA. Human and cynomolgus monkey receptor subunits (Acrobiosystems, KactusBiosystems) were coated at 1 μg/mL in PBS (pH 7.4) in a Maxisorp plate (Nunc) and incubated overnight at 4° C. The plates were further washed with PBS-Tween pH 7.4 and incubated with 1% cascin/PBS-Tween blocking solution for 1 hour shaking at 400 rpm. Subsequently, the plate was washed three times with PBS-Tween pH 7.4, after which the test antibodies diluted in 0.1% casein/PBS-Tween were added to the plate and incubated for 1 hour. The plate was again washed three times, after which goat anti-human IgG Fc (HRP) detection antibody (abcam) was added to the plate and incubated for 30 min. The colouring reaction was performed with TMB (Sigma-Aldrich) and stopped with 0.5N H₂SO₄.
(§2) Absorbance was measured at 450 nm with the reference wavelength of 620 nm using spectrophotometer. Final analysis and graphic output were performed with GraphPad Prism version 8 (GraphPad Software). The dose-response binding curves were fit to a nonlinear regression model (log (agonist) vs. response with a variable slope (four parameters)).

[2] = target: T2, cynomolgus monkey IL-2Rβ/CD122 subunit; assay: ELISA, bivalent VHH-hFc
Experimental: as §1, §2

[3] = target: T2, cynomolgus monkey IL-2Rβ/CD122 subunit; assay: ELISA, bivalent; EC50 cyno vs human subunit
Experimental: as §1, §2

[4] = target: T3, human interleukin-2 receptor α-chain …; assay: ELISA, bivalent VHH-hFc
Experimental: as §1, §2

[5] = target: T4, cynomolgus monkey IL-2Rα/CD25 subunit; assay: ELISA, bivalent VHH-hFc
Experimental: as §1, §2

[6] = target: T4, cynomolgus monkey IL-2Rα/CD25 subunit; assay: ELISA, bivalent; EC50 cyno vs human subunit
Experimental: as §1, §2

EC50 [1] | EC50 [2] | Fold change [3] | EC50 [4] | EC50 [5] | Fold change [6] | binding result [5] | binding result [2] | Binder
0.209 nM | 0.895 nM | 4.3 fold |  |  |  |  |  | B1
0.125 nM | 0.157 nM | 1.3 fold |  |  |  |  |  | B2
0.117 nM | 0.138 nM | 1.2 fold |  |  |  |  |  | B3
0.053 nM | 0.066 nM | 1.3 fold |  |  |  |  |  | B4
0.294 nM | 0.3 nM | 1 fold |  |  |  |  |  | B5
0.124 nM | 0.184 nM | 1.5 fold |  |  |  |  |  | B6
 |  |  | 0.052 nM | 0.061 nM | 1.2 fold |  |  | B7
0.087 nM | 0.099 nM | 1.1 fold |  |  |  |  |  | B8
0.124 nM | 0.122 nM | 1 fold |  |  |  |  |  | B9
 |  |  | 0.047 nM |  |  | no binding |  | B10
0.245 nM | 0.23 nM | 0.9 fold |  |  |  |  |  | B11
0.191 nM | 0.265 nM | 1.4 fold |  |  |  |  |  | B12
0.053 nM | 0.127 nM | 2.4 fold |  |  |  |  |  | B13
0.09 nM | 0.065 nM | 0.7 fold |  |  |  |  |  | B14
0.059 nM | 0.074 nM | 1.3 fold |  |  |  |  |  | B15
0.079 nM | 0.09 nM | 1.2 fold |  |  |  |  |  | B16
0.218 nM |  |  |  |  |  |  | no binding | B17
0.794 nM | 0.603 nM | 0.8 fold |  |  |  |  |  | B18
0.085 nM | 0.105 nM | 1.2 fold |  |  |  |  |  | B19
0.084 nM | 0.157 nM | 1.9 fold |  |  |  |  |  | B20
0.06 nM | 0.06 nM | 1 fold |  |  |  |  |  | B21

Reference: patent US20240409645A1 (DUALYX, published 2024)
